T1: Rhesus D antigen (human, UniProt Q02161 2-417)
T1 construct: whole, on cells; Presented on RhD-positive erythrocytes in all assays; also called RhD; RhD antigen
T1 sequence (looked up): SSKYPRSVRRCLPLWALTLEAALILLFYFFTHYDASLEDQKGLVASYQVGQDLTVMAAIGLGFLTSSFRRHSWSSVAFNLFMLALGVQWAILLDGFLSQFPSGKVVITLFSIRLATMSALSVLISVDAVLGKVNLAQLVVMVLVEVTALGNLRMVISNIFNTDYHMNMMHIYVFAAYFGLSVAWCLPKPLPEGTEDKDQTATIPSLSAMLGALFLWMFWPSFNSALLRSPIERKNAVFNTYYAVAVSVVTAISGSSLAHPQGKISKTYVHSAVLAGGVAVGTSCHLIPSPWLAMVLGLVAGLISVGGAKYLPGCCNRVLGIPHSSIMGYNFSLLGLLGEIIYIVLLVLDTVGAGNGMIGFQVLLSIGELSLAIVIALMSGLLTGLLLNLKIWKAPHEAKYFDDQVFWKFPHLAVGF


Molecular target: T1, Rhesus D antigen
Test: agglutination assay, Fab on RhD(+)/RhD(-) RBC mix
Method: After each round of panning single colonies were picked for analysis of their binding properties to red blood cells in agglutination assays. Briefly, single colonies were inoculated into 2×YT/100 μg/mL carbenicillin/1% glucose and shaken overnight at 37° C. The next day, DeepWell plates were inoculated using 900 μl 2×YT/100 μg/mL carbenicillin/0.1% glucose and 10 μl overnight culture. The plates were shaken for two hours at 37° C., before Fab induction was performed with addition of 300 μl 2×YT/100 μg/mL carbenicillin/0.25 mM IPTG per well. The plate was shaken overnight at 30° C. The following day, the bacteria were pelleted by centrifugation (3200×g, 4° C., 10 minutes), and re-suspended in 100 μl of 0.8 M NaCl, 0.2×PBS, 8 mM EDTA, and incubated for 15 minutes on ice in order to perform a periplasmic extraction of the Fab fragments. The plate was transferred to −20° C. and finally the suspension was thawed and centrifugation was performed for 10 minutes at 4° C. and 3200×g. The periplasmic extract was used in ELISA assays for analysis of Fab content and in agglutination assays to evaluate the binding potential of the individual Fab fragments. The agglutination assay was performed as follows: RhD(−) and RhD(+) RBC were mixed in a 1:1 ratio, and washed 3 times in PBS. After the final wash, the cell mix was re-suspended in 1% BSA in PBS at a density of 1% cells, 50 μl was added to each well of a 96-plate. Periplasmic extracts were added to the wells. As a positive control Rhesogamma P immunoglobulin (Aventis) was used according to the manufacturer's instructions. The plates were incubated for one hour at room temperature with gentle shaking. The cells were washed three times with PBS, before the secondary antibody was added (goat anti-human Fab/FITC conjugate, Sigma F5512) in a 1:100 dilution. The plates were left for agglutination for one hour at room temperature without shaking. Fab fragments positive in the agglutination assay was determined by visual inspection, and recorded by taking a picture. Quantization of the binding activity of the Fab fragments was performed by FACS analysis of the agglutination samples.

Binder	binding result
RhD190.119F05 (Fab, V domains shown, Tested as Fab (periplasmic extract)) VH: EVQLVETGGGVVQPGRSLRLSCAASGFSFSNYGMHWVRQAPGKGLEWVAVIWFDGSIKYYVDSVKGRFTISRDNSKNTLYLQMNSLRAEETAIYFCARENSVLVPGTIRRRYYLDYWGQGTLVTVSS VL: DIQLTQSPSSLSASVGDRVTITCRASQSISSYLNWYQQKPGEAPKLLIYVASTLQSGAPSRFSGSGSGTDYTLTISSLQPEDSATFYCQQTYSPPYTFGQGTKLEIKR	binds
RhD197.127A08 (Fab, V domains shown, Tested as Fab (periplasmic extract); lambda clone) VH: QVQLVESGGGVVQPGRSLRLSCAASGFTFSNYGMHWVRQAPGKGLEWVAVIWFDGSNRDYADSVKGRFTISRDNSKKTLYLQMNSLRAEDTAVYYCATELARGRLRALEYWGQGTLVTVSS VL: QTVVTQEPSLTVSPGGTVTLTCASSTGAVTTGYYPNWFQQKPGQAPRALIYSTSKKHSWTPARFSGSLLGGKAALTLSGVQPEDEAEYYCLLFYGGAQLGVFGGGTKLTVLG	binds
RhD207.127A11 (Fab, V domains shown, Tested as Fab (periplasmic extract)) VH: EVQLVESGGGVVQPGRSLRLSCAASGFTFSSYGMHWVRQAPGKGLEWVAVIWYDGSNKDYVDSVKGRFTISRDNSKNTLYLQMNSLRAEDTAVYYCARELAKGRLRDLDHWGQGTLVTVSS VL: QAVVTQEPSLTVSPGGTVTLTCASSTGAVTTGYYPNWFQQKPGQAPRALVHSTSKKHSWTPARFSGSLLGGKAALTLSGVQPEDEAEYYCLLFYGGAQLGVFGGGTKLTVLG	binds
RhD194.126G10 (Fab, V domains shown, Tested as Fab (periplasmic extract)) VH: QVTLKESGPVLVKPTETLTLTCTVSGFSLSNARMGVSWIRQPPGKALEWLAHIFSNDEKSYSTSLKSRLTISKDTSKSQVVLTMTNMDPVDTATYYCARMRLTMVRGVITYYYYSMDVWGQGTTVTVSS VL: DIQMTQSPSSLSASVGDRVTITCRASQSISTYLNWYQQKPGKAPKLLIYAASTLQSGVPSRFSGSGSGTHFTLTISSLQREDFATYYCQQTYRTPTWTFGQGTKVEIKR	binds
RhD191.119E08 (Fab, V domains shown, Tested as Fab (periplasmic extract)) VH: QVQLVESGGDLVQPGGSLRLSCAASGFTFRSYEMNWVRQAPGKGLEWVSYINSRGNTKYYADSVKGRFTISRDNAKKSLYLQMSSLRAEDTAVYYCARNLFGDYDLKSYYYNAMDVWGQGTLVTVSS VL: EIVLTQSPGTLSSSPGERATLSCRASQSVTSRYLAWYQQKHGQAPRLLIYGTSTRATGIPDRFSGGGSQTDFTLTISRLEPEDFAVYYCQHYDDSISTYIFGPGTELEIKR	binds
RhD192.119G06 (Fab, V domains shown, Tested as Fab (periplasmic extract)) VH: QVQLVESGGGLVKPGGSLRLSCAASGFTFSSYAMNWVRQAPGKGLEWVSSISGTSSYIYYADSVKGRFTIFRDNAKSSVYLQMNSLRVEDTAVYYCARDRWWGMVRRVFPTYPFDYWGQGTLVTVSS VL: DIQLTQSPSSVSASVGDRVTITCRASQGINNLLAWYQQKPGKAPKLLIYAASNLQSGVPSRFSGSGSGTDFTLTINSLQPEDFATYYCQQANSFPLTFGGGTKVEIKR	binds
RhD193.126G05 (Fab, V domains shown, Tested as Fab (periplasmic extract)) VH: QVQLVETGGGVVQPGRSLRLSCAASGFTFSSYGMHWVRQAPGKGLEWVAVIWYDGSNKDYADPVKGRFTISRDNSKNTLYLQMNSLRAEDTAVYYCAREIASRGYSRYLYYFDSWGQGTLVTVSS VL: DIQMTQSPSSLSASVGDRVTITCRASQSISSYLNWYQQNPGKAPKLLIYGASNLQSGVPSRFSGSGSGTDFTLTISSLQPEDFATYYCQQSYSTLALTFGGGTKVEIKR	binds
RhD297.126E06 (Fab, V domains shown, Tested as Fab (periplasmic extract)) VH: QVQLVESGGGVVQPGRSLRLSCAASGFTFRTYGMHWVRQAPGKGLEWVAVIWYDGSNKDYADSVKGRFTISRDNSKNTLHLQMNSLRAEDTAVYYCAREIASRGYSRYLYYLDFWGQGTLVTVSS VL: DIQLTQSPSSLSASVGDRVTITCRASQSISSYLNWYQQNPGKAPKLLIYGASNLQSGVPSRFSGSGSGTDFTLTISSLQPEDFATYYCQQSYSTLALTFGGGTKVEIKR	binds

Reference: US20110217317A1 (published 2011)
